Results on 41 sequences are retold here after the nanobody polyreactivity screen of Harvey et al. (2022).

A short description of the series: yeast display, Sf9 membrane polyspecificity reagent, FACS + sequencing; frameworks hold sequencing errors. An outline of the steps: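 Galactose-induced (36–48 hours) yeast carrying a synthetic nanobody display library were exposed to 10% biotinylated, detergent-solubilized Sf9 membrane reagent at 4 °C for 1 hour. FACS followed streptavidin microbead enrichment, using low and high (top ~1%) gates for expression (anti-HA) and reagent binding (streptavidin). Colony PCR, MiSeq 2 × 250 sequencing and CDR-length filtering followed. Labels for polyreactivity reflect the gate of origin.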
For “QVQLVESGGGLVQSGGSLRLSCAASGLTFRRNPMGRYRQAPGKERELVATITSGGSTNYADSVKGRFTISRDNAKNTVYLQMNSLKTEDTAVYYCAARTTYITPWAGRYFSWDYDYWGQGTQVTVSS”, the “polyreactivity (PSR sort gate)” value is recorded as “high polyreactivity”. Turning to “QVQLVESGGGLVQSGGSLRLSCAASGLTLGHNAMGLYRQAPGKERELVAAITRGGSTNYSDSVKGRFTISRDNAKNTVYFHMNSLKPEYTAVYSCAADLYLGWYYGFEYDYWGQGTQVTVSS”, the “polyreactivity (PSR sort gate)” value was “low polyreactivity”. As for “QVQLVESGGGLVQSGGSLRLSCAASGNTFHSNAMGWYRQAPGKERELVAAITPSDGDTYYADSVKGRFTISRDNAKNTVYLQMNSLKPEDTAVYYCNARKQVYKIYYSDYRRYDYWGQGTQVTVSS”, the “polyreactivity (PSR sort gate)” value is reported as “low polyreactivity”. Under “QVQLVESGGGLVQSGGSLRLSCAASGRIFVYYAMGWYIQAPGKEMELVAAIDGSDGTTYYADSVKGRFTISRDNAKNTVYLQMNSLKPEDTSVYYCAKDNSLPDYDYWGQGTQVTVSS” stands “low polyreactivity”; under “QVQLVESGGGLVQSGGSLRLSCAASGRTFRYYVMGWYRQAPGKERELVADISRGGGRTRYADSVKGRFTISRDNAKNTVYLQMNSLKRDDTAVYYCGARSYSGQFGYWGQGTQVTVSS”, “high polyreactivity”.

Take “QVQLVESGGGLVQSGGSLRLSCAASGSIFGYYAMGWYRPAPGKERELVAGITNSGDTNYADSVKGRFTISRDNAKNTVYLQMNSLKPEDTAVYYCAAESWAALYGMDYWGQGTQVTVSS”: the “polyreactivity (PSR sort gate)” value is “low polyreactivity”.

Take “QVQLVESGGGLVQSGGSLRLSCAASGSIFTGYAMGWYRQAPGKERELVAAITGRGTRTYYADSLKGRFTISRDNANNTVSLQMNSLKPEDTAVYYCAAPVGASSYRDYYWGQGTQVNVSS”: the “polyreactivity (PSR sort gate)” value is recorded as “high polyreactivity”.

For the sequence “QVQLVESGGGLVQSGGSLRLSCAASGSIFTWYTMGWYRQAPGKERELVAAISWSGGRTYYADSVKGRFTISRDNAKNTVYLQMNSLKPEDTAVYYCAASAYGRPPFDYWGQGTQVTVSS”, the “polyreactivity (PSR sort gate)” value was “high polyreactivity”. Then “QVQLVESGGGLVQSGGSLRLSCAASGSIYAYYAMGWYRQAPGKERELVAAIRFNSGRTYYADSVKGRFTISRDNAKNTVYLQMKSLKPEDTAVYYCAARDGYVYSHRYDYWGQGTQVTVSS”, with “high polyreactivity”. “QVQLVESGGGLVQSGGSLRLSCAASGSTFSINPMGWYRQAPGKERELFAAITWRGVRTYYADSVKGRFTISRDNAKNTVYFQMNSLKPEDTAVYYCAADVVVAGHPGFDYWGQGTQVTVSS”: the “polyreactivity (PSR sort gate)” value was “high polyreactivity”.

As to “QVQLVESGGGLVQSGGSLRLSCAASGSTSGTNAMGWYRQAPGKERELVAGISYRGGSTYYADSVKGRFTISRDNAKNTVYLHMNSLKPEDTEVYYCAASRNISYWGQGTQVTVSS”, the “polyreactivity (PSR sort gate)” value is listed as “high polyreactivity”.

Take “QVQLVESGGGLVQSGGSLRLSCAGSGSTFHYNAMGWYRQAPGKEREFVAAISRTGTSTYYADSVKGRFTISRDNAKNTVYLQMNSLKPEDTAVYYFAAKSLRSGMGYWGQGTQVTVSS”: the “polyreactivity (PSR sort gate)” value is recorded as “high polyreactivity”. Take “QVQLVESGGGLVQTGGSLRLSCAASGRIFKHYAMGWYTHAPGKERELVAAITNGGRTNYSDSVKGRFTISRDNAKNTVYLQMNSLKPEDTAVSYCARDRKIAYLSEGFDYWGQGTQVSVSS”: the “polyreactivity (PSR sort gate)” value is “low polyreactivity”. For the sequence “QVQLVESGGGLVQTGGSLRLSCAASGRIFRYYDMGWYRQAPGKEREFVAAITRSGAITYYADSVKGRFTISRDNAKNTVYLQMNSLKPEDTAVYYCFAVRHYALYAGRPYDYWGQGTQVTVSS”, the “polyreactivity (PSR sort gate)” value is given as “low polyreactivity”.

For the sequence “QVQLVESGGGLVQTGGTLRLSCAASGRSFNRNARAWYRLAPGKERELVAAISSRVGRTYYADSVKGRFTISRDNAKNSVYLKMNSLKQEETAVYYCNAVYSQSCYFYRFDYWGQGTQVNVSS”, the “polyreactivity (PSR sort gate)” value is given as “high polyreactivity”. Then “QVQLVESGGGLVQVGGSLRLSCAASGFIFTHYAMGWYRQAPGKERELVAAISVDGGDTYYADSVKGRFTISRDNAKNTVYLQMNSLKPEDTAVYYYWGQGTQVTVSS”, with “low polyreactivity”. Under “QVQLVESGGGLVQVGGSLRLSCAASGSNFPANAMGWYRQAPGKEWEFVAAINWSTGTTYYADSVKGRFTISRDNAKNTVYLQMNSLKPEDTAVYYCNASDQAKYDYWGQGTQVTVSS” stands “low polyreactivity”; under “QVQLVESGGGLVRAGGSLRLSWAASGFTFTSYAMGWYRQAPGKERELVAAITVTGGRTYYADSVKGRFTISRDNAKNTVYLQMNSLKPEDTAVYYCATVFSLSSPYWKHYYWGQGTQVTVSS”, “high polyreactivity”; under “QVQLVESGGGLYQAGGSLRLSCAASGLIFTTNAMGWYRQAPGKEREFVAAISPSGGSTYYADSVKGRFTISRDNAKNTVYLQMNSLKPEDTAVYYCAARYSPVWHKYYYWGQGTQVTVSS”, “high polyreactivity”. Then “QVQLVESGGGSDQAGGSLRLSCAASGSTFQYNVMGWYRQAPRKERELVAAIRQSGSTTYYADSVKGRFTISRDNAKNTVYLQMNSLKPEDTAVYYCAKRYHNWANSRMDYWGQGTQVTVSS”, with “low polyreactivity”. Turning to “QVQLVESGGGSLRLSCAASGLTFGGYTMGWIRQAPGKERELVAAISSSDSTNYADSVKGRFTISRDNAKNTVYVQMNSLKPEDTALYSCSADSGQWSRYSSFGDEGDSWGQGTQVTVSS”, the “polyreactivity (PSR sort gate)” value is listed as “low polyreactivity”.

Regarding “QVQLVESGGGSVQAGGSLRLSCAASGFTFDKNTMGWYRQAPGKERELVAAISSSGSSTYYADSVKGRFTISRDNAKNTVYLQMNSLKPEDTAVYYCAADYWGWDDYSEYYYWGQGTQVTVSS”, the “polyreactivity (PSR sort gate)” value was “high polyreactivity”. Under “QVQLVESGGGSVQAGGSLRLSCAASGSIFRANAMGWYRQAPGKERELVAAITANGGSTYYADSVKGRFTISRDNAKNTVYLQMNSLKPEDTAVYYCNNARVRGARFDYWGQGTQVTVSS” stands “high polyreactivity”; under “QVQLVESGGGSVQAGGSLRLSCAASGSTFGGNVMGWYRQAPGKERELVAAISGSGGSTYYADSVKGRFTISRDTAKNTVYFQMNSLKPVDTSVYYCNVESSQSSSGFDYWGQGTQVTVSS”, “low polyreactivity”. Under “QVQLVESGGGSVQAGGSLRLSCAASGSTFVANTMGWYRQAPGKERELVASITSGDSTNYADSVKGRFTISRDNAKNTVYLQMNSLKPEDTAVYYCAAESVWYYVGGQLIYYYWGQGTQVTVSS” stands “low polyreactivity”.

In the case of “QVQLVESGGGVFQAGGTLSLSCAASGITFYPNDMGWYRQATGKETELVAAITTNDGDTYYADSVKGRFTISRDNAKNTVYLQMNSLKPEYTAVYYCAADSGSTSEYEYWGQGTQVTVSS”, the “polyreactivity (PSR sort gate)” value is “low polyreactivity”. Then “QVQLVESGGGVLQAGGSLRLSCAASGRTFCFYAMGWSRQAPGKERELVASITWRGGRTYYADSVKGRFTISRDNAKNTVYLQMNSLKPEDTAVYYCAAVTFSYDGYDYWGQGTQVTVSS”, with “low polyreactivity”; and “QVQLVESGGGVVQAGGILRFSCAASGRTFAPDAMGWYRQAPGKERELDAAITNGGSTTYADSVKGRFTISRDNAKNTVYLHMNSLNPEDTAVYYCAADIVSSTDYPFDYWGQGTQVNVSS”, with “low polyreactivity”; and “QVQLVESGGGVVQAGGRLRLSCAASGGIYRYYAMGWYRQAPGKERELVAVITKSGGDTYYADSVKGRFTISRDNAKNTVYLQMNSLKPEDTAVYYCAAVYGYYTYWIAGFTWAGDYWGQGTQVTVSS”, with “low polyreactivity”.

With “QVQLVESGGGVVQAGGSIRLSCAASGRIFTSNAMGWNRQAPGKETELDAAISGSGGRTYYADSVKGRFTISRDNAKNTVYLQMNSLKPEDTAVYDCNARYYTSGIAYSYYYWGQGTQGTVSS”, the “polyreactivity (PSR sort gate)” value was “high polyreactivity”. With “QVQLVESGGGVVQAGGSIRLSGAASGRIFGEYAMGWYRPAPAKERELGAAISGGGSTYYADSVKGRFTISRDNAKNTVYLQMNSLKPEDTAVYYCAVYSVYHEYDYGGQGTQVTVSS”, the “polyreactivity (PSR sort gate)” value is reported as “low polyreactivity”.

As for “QVQLVESGGGVVQAGGSLRISCAASGSTFVRYAMGWYRQAPGKERELVASISSSGSTYYADSVKGRFTISRDYAKNTVNVELNCLNPEDNAVYYCAKQYGGRYGYWGQGSQVTVSS”, the “polyreactivity (PSR sort gate)” value is listed as “low polyreactivity”. In the case of “QVQLVESGGGVVQAGGSLRLSCAASGFIFTFYAMGWYRQAPGKERELVAAITGRGGRTYYADSVKGRFTISRDNAKNTVYLQMNSLKPEDTAVYYCAARYRYSVTPGYVYWGQGTQVTLSS”, the “polyreactivity (PSR sort gate)” value was “high polyreactivity”.

In the case of “QVQLVESGGGVVQAGGSLRLSCAASGFLFSHNAMGWYRQAPGKERELVASITSAGTTYYADSVKGRFTISRDNAKNTVYLQMNSLKPEDTAVYYCNKGGSSPVDIYITGDGDYWGQGTQVTVSS”, the “polyreactivity (PSR sort gate)” value is “low polyreactivity”. Then “QVQLVESGGGVVQAGGSLRLSCAASGLIFYLYAMGWYRQAPGKERELVAGITSGGGSTYYADSVKGRFTISRDNAQNTVYLQMNSLKPEDTAVDDCAARLVLYITVVYEDDYWGQGTQGTVSS”, with “low polyreactivity”; and “QVQLVESGGGVVQAGGSLRLSCAASGLIIPFYARGWYRQAPGKERELVAAISWSAGSTYYADSVKGRFTMSRDNAKTTVYLQMNSLKPEDTAVYYCATDRNPADFYWGQGTQVTVSS”, with “low polyreactivity”; and “QVQLVESGGGVVQAGGSLRLSCAASGRIFIYYTMGWYRQAPGKEREFVAAITYSGGSTRYADSVKGRFTISRDNAKNTVYLQMNSLKPEDTAFYYCAAKFSVRRGFDYWGQGTQVTVSS”, with “low polyreactivity”. Then “QVQLVESGGGVVQAGGSLRLSCAASGRIFRYNAMGWYRQAPGKEREVVAGISFSGGSTYYADSVKGRFTISRDNAKNTVYLQMNSLKPEDTAVYYCNAYGRYSYPTFDYWGQGTQVTVSS”, with “high polyreactivity”. Under “QVQLVESGGGVVQAGGSLRLSCAASGRIFVGYDMGWYRQAPGKEWELVAAINRSGSSTYYADSVKGRFTISRDNAKNTVYLQMNSLKPEDTAVYYCNDRSGNRYGPRYDYWGQGTQVTVSS” stands “high polyreactivity”; under “QVQLVESGGGVVQAGGSLRLSCAASGRTFNYYAMGWYRQAPGKERELVAAISRTATTYYADSVKGRFTISRDNAKNTVYLQMNSLKPEDTAVYYCAARSYSSSFSYRHYYWGQGTQVTVSS”, “high polyreactivity”; under “QVQLVESGGGVVQAGGSLRLSCAASGRTFQFNAMGWYRQAPGKERELVATIDDPSGGTYYADSVKGRFTISRDNAKNTVYLQMNSLKPEDTAVYYCAADRWDSRYETYRYDYWGQGTQVTVSS”, “low polyreactivity”.
